Each block holds one substance with its values, some of them ahead of it.
Legend:
[1] = biological target: Fc gamma receptors on bovine alveolar macrophages; test: cell-based or functional assay
[2] = biological target: recombinant bovine FcRn (bovine) (UniProt F6R592); test: SPR Biacore, bFcRn on SA sensor, pH 7.4, 25 C
[3] = biological target: recombinant bovine FcRn (bovine) (UniProt F6R592); test: SPR Biacore, bFcRn on SA sensor, pH 7.4, 25 C; remark: listed apart in the source
[4] = biological target: recombinant bovine FcRn (bovine) (UniProt F6R592); test: SPR Biacore, bFcRn on SA sensor, pH 6, 25 C
[5] = biological target: recombinant bovine FcRn (bovine) (UniProt F6R592); test: SPR Biacore, bFcRn, pH 6; against bIgG1a and bIgG3a mAbs
[6] = biological target: recombinant bovine FcRn (bovine) (UniProt F6R592); test: SPR Biacore, bFcRn on SA sensor, pH 6, 25 C; remark: listed apart in the source
[7] = biological target: recombinant bovine Fcg2R (bovine); test: SPR Biacore, bFcg2R amine-coupled on CM5, pH 7.4, 15 C
Sequence of recombinant bovine Fcg2R (bovine) (main, as listed by the source): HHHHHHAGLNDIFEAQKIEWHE

Sequence of recombinant bovine FcRn (bovine) (chain, as listed by the source, chain 1 of 2): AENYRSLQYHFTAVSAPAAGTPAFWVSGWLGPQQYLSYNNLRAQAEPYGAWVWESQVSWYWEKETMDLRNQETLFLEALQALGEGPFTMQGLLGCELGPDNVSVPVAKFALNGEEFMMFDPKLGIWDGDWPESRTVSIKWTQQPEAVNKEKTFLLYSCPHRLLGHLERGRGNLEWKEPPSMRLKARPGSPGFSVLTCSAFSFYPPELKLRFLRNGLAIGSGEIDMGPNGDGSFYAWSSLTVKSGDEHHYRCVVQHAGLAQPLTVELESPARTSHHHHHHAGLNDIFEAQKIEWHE
Sequence of recombinant bovine FcRn (bovine) (P01888 21-118, chain 2 of 2): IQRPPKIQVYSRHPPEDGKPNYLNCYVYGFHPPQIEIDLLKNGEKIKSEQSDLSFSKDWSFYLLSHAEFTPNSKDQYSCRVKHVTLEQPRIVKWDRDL

ADCP EC50 Value [1]: 0.003 µg/mL
Substance: CTLA4 Fc bIgG1a (from UniProt Q9XSI1 36-161) (Fc fusion)

ADCP EC50 Value [1]: 0.029 µg/mL
Substance: CTLA4 Fc bIgG3a (from UniProt Q9XSI1 36-161) (Fc fusion)

ADCP EC50 Value [1]: 0.014 µg/mL
Substance: CTLA4bG2a (from UniProt Q9XSI1 36-161) (Fc fusion)

Kd [2]: 147 nM
Kd [3]: 131 nM
Kd [4]: 0.254 nM
fold higher affinity than bIgG1a and bIgG3a [5]: 10 fold
Kd [6]: 3.06 nM
Kd [7]: 13.3 nM
Substance: bIgG2a wildtype mAb (antibody)

Source: patent publication US20230416410A1
